± gives the standard deviation of the averaged measurements.
Tests used:
Experiment in all cases: protein stability index of tFT-peptide fusion (C-terminal peptide) (PSI (0-1 scale)); higher = more stable (slower turnover)
[1] = test system: Saccharomyces cerevisiae; settings: temperature: 30 C
Description: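 MPS profiling in S. cerevisiae of the yeast C-terminome library: the last 12 aa of each annotated ORF are fused to the C-terminus of a sfGFP-mCherry timer, after a GGGS linker. Cells are FACS-sorted into 8 mCherry/sfGFP bins and deep-sequenced. PSI runs from 0 (unstable) to 1 (stable); wild type and das1Δ backgrounds, two technical replicates each.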

[2] = test system: Saccharomyces cerevisiae; settings: genetic background: wild type; temperature: 30 C
[3] = test system: Saccharomyces cerevisiae
Description: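 MPS profiling in S. cerevisiae of the tFT-X12 degron library: putative degron peptides plus stable controls, 12 aa, fused to the C-terminus of a sfGFP-mCherry timer. Cells are FACS-sorted into 8 mCherry/sfGFP bins and deep-sequenced. PSI runs from 0 (unstable) to 1 (stable). Backgrounds are wild type, das1Δ and doa10Δ at 30 °C, and wild type, das1Δ, cdc34-1 and cdc53-1 at 37 °C; 2-3 technical replicates each.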

[4] = genetic background: das1 deletion
[5] = genetic background: cdc34-1, temperature: 37 C
[6] = genetic background: cdc53-1, temperature: 37 C
[7] = genetic background: das1 deletion, temperature: 30 C
[8] = genetic background: das1 deletion, temperature: 37 C
[9] = genetic background: doa10 deletion, temperature: 30 C
[10] = genetic background: wild type, temperature: 30 C
[11] = genetic background: wild type, temperature: 37 C

Row | Sequence | protein stability index [1, 4] | protein stability index ([1]; genetic background: wild type) | also measured
1 | AALESEDEDDEA [CAF20 C-terminal 12 aa] | 0.685 ± 0.041 | 0.6667 ± 0.0033 | 
2 | ADDDFDADMELE [CDC16 C-terminal 12 aa] | 0.685 ± 0.0038 | 0.728 ± 0.028 | 
3 | ADQELFMGIMNA [NMD5 C-terminal 12 aa] | 0.676 ± 0.012 | 0.677 ± 0.0097 | 
4 | AERAGNAGVKAE [SND3 C-terminal 12 aa] | 0.654 ± 0.0096 | 0.685 ± 0.017 | 
5 | AFTAKWKAENKQ [FYV4 C-terminal 12 aa] | 0.691 ± 0.017 | 0.6671 ± 0.0054 | 
6 | AGAAAVANQGKK [GPM1 C-terminal 12 aa] | 0.697 ± 0.016 | 0.715 ± 0.064 | 
7 | AIAEIKKSLAFA [SDH2 C-terminal 12 aa] | 0.684 ± 0.024 | 0.688 ± 0.086 | 
8 | AIRRENEWAEDR [SKP1 C-terminal 12 aa] | 0.6841 ± 0.005 | 0.709 ± 0.0089 | 
9 | AKDIKGYGTQKI [PRE4 C-terminal 12 aa] | 0.65979 ± 0.00058 | 0.695 ± 0.022 | 
10 | AKISDKENKAFL [MRPL15 C-terminal 12 aa] | 0.6927 ± 0.0019 | 0.678 ± 0.025 | 
11 | AKPALFERFINA [MCD1 C-terminal 12 aa] | 0.6979 ± 0.0043 | 0.665 ± 0.011 | 
12 | AKTSLYTATVIS [PAC11 C-terminal 12 aa] | 0.636 ± 0.015 | 0.6331 ± 0.006 | 
13 | ALNQVLGVPGAM [SSH1 C-terminal 12 aa] | 0.683 ± 0.017 | 0.671 ± 0.031 | 
14 | ALVDQLIAKYSS [ACB1 C-terminal 12 aa] | 0.703 ± 0.029 | 0.663 ± 0.042 | 
15 | ANARLESESKDP [UNG1 C-terminal 12 aa] | 0.6954 ± 0.0034 | 0.667 ± 0.033 | 
16 | ANGTSPGVHVRE [IRC15 C-terminal 12 aa] | 0.693 ± 0.0096 | 0.678 ± 0.017 | 
17 | ARGAGGFGSTGN [DUT1 C-terminal 12 aa] | 0.697 ± 0.0079 | 0.7208 ± 0.0062 | 
18 | ARRTFTGRKIVY [ARC35 C-terminal 12 aa] | 0.7301 ± 0.0013 | 0.7288 ± 0.0052 | 
19 | ASEKEKSECVVM [MIY2 C-terminal 12 aa] | 0.733 ± 0.017 | 0.745 ± 0.0097 | 
20 | ASFAKDVISLPE [YER046W-A C-terminal 12 aa] | 0.7202 ± 0.00094 | 0.699 ± 0.079 | 
21 | ASRHSSTKKTST [CAB1 C-terminal 12 aa] | 0.6986 ± 0.0058 | 0.692 ± 0.054 | 
22 | ATGTKSDRPIWR [SHE1 C-terminal 12 aa] | 0.6627 ± 0.00093 | 0.72 ± 0.034 | 
23 | ATRNLNQYWRVL [YAL019W-A C-terminal 12 aa] | 0.68 ± 0.011 | 0.58 ± 0.023 | 
24 | AVGETRLKKSKK [PRP21 C-terminal 12 aa] | 0.689 ± 0.016 | 0.779 ± 0.12 | 

Row | Sequence | protein stability index [1, 4] | protein stability index ([1]; genetic background: wild type) | also measured
25 | AVSEELIKMWYD [GCN3 C-terminal 12 aa] | 0.7218 ± 0.0015 | 0.736 ± 0.037 | 
26 | AYECAKHFLMTY [MRS3 C-terminal 12 aa] | 0.689 ± 0.033 | 0.653 ± 0.057 | 
27 | CFRWLVRNHLLS [YEL045C C-terminal 12 aa] | 0.692 ± 0.0081 | 0.187 ± 0.0022 | 
28 | CHAYAKKAKEFL [PAM17 C-terminal 12 aa] | 0.694 ± 0.019 | 0.7 ± 0.047 | 
29 | CKSHAITNNITM [YER152C C-terminal 12 aa] | 0.711 ± 0.026 | 0.687 ± 0.0091 | 
30 | CPTPGCTCQCNK [SEA4 C-terminal 12 aa] | 0.69 ± 0.015 | 0.659 ± 0.0093 | 
31 | CRKGVSHKGVCH [YBL111C C-terminal 12 aa] | 0.721 ± 0.026 | 0.71 ± 0.035 | 
32 | CSTFAFAERLQC [YIL021C-A C-terminal 12 aa] | 0.6901 ± 0.003 | 0.642 ± 0.029 | 
33 | CYYKTQKSQISN [SIP1 C-terminal 12 aa] | 0.715 ± 0.011 | 0.727 ± 0.016 | 
34 | DALHKMDKNVLE [YOL029C C-terminal 12 aa] | 0.696 ± 0.028 | 0.728 ± 0.076 | 
35 | DAMEFIAQSHKS [OCT1 C-terminal 12 aa] | 0.694 ± 0.011 | 0.719 ± 0.021 | 
36 | DASALIEIQEKC [SST2 C-terminal 12 aa] | 0.669 ± 0.021 | 0.695 ± 0.059 | 
37 | DASSTKNTDHIV [MEP2 C-terminal 12 aa] | 0.678 ± 0.014 | 0.679 ± 0.068 | 
38 | DDDDDDDDDEAD [RAD6 C-terminal 12 aa] | 0.686 ± 0.015 | 0.667 ± 0.0086 | 
39 | DDDEMDIEFEDV [TFA1 C-terminal 12 aa] | 0.71135 ± 0.00066 | 0.739 ± 0.01 | 
40 | DDEAGALIPENC [SOL4 C-terminal 12 aa] | 0.705 ± 0.03 | 0.688 ± 0.0086 | 
41 | DDECTYKMAKFK [YNL303W C-terminal 12 aa] | 0.68172 ± 0.00037 | 0.664 ± 0.035 | 
42 | DDEEDEEEGQVA [USO1 C-terminal 12 aa] | 0.704 ± 0.013 | 0.66 ± 0.027 | 
43 | DEEDEEDVKTEV [CAB3 C-terminal 12 aa] | 0.6848 ± 0.0014 | 0.664 ± 0.016 | 
44 | DEELFLLSKSLR [SPC98 C-terminal 12 aa] | 0.724 ± 0.013 | 0.6784 ± 0.0026 | 
45 | DEGRNTSSVVNK [MAL31 C-terminal 12 aa] | 0.688 ± 0.0089 | 0.7419 ± 0.0019 | 
46 | DELTTVLNQLVR [EXO70 C-terminal 12 aa] | 0.6823 ± 0.0024 | 0.66 ± 0.011 | 
47 | WTILTVMFCSYI |  |  | protein stability index [2]: 0.275 ± 0.026; protein stability index [3, 5]: 0.312 ± 0.011; protein stability index [3, 6]: 0.396 ± 0.014; protein stability index [3, 7]: 0.276 ± 0.026; protein stability index [3, 8]: 0.418 ± 0.031; protein stability index [3, 9]: 0.282 ± 0.0044; protein stability index [3, 10]: 0.261 ± 0.022; protein stability index [3, 11]: 0.377 ± 0.019
48 | WVDVAGIVAVAG |  |  | protein stability index [2]: 0.522 ± 0.036; protein stability index [3, 5]: 0.526 ± 0.021; protein stability index [3, 6]: 0.55 ± 0.022; protein stability index [3, 7]: 0.421 ± 0.026; protein stability index [3, 8]: 0.5809 ± 0.0037; protein stability index [3, 9]: 0.387 ± 0.0085; protein stability index [3, 10]: 0.419 ± 0.016; protein stability index [3, 11]: 0.5495 ± 0.003
